From the supplement of paper PMC10567573
± gives the standard deviation.

Experiment: protein stability index of a GFP-peptide fusion (GPS, HEK-293T) (PSI 1-6); higher = more stable
[1] = treatment: DMSO, c terminus: a fixed tail appended
[2] = treatment: MLN4924 1 uM, 8 h, c terminus: a fixed tail appended
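Note: 24-mer peptide tiles fused after GFP, lentivirally expressed, FACS-sorted into six equal bins by GFP/DsRed ratio, decoded by Illumina sequencing, PSI is the read-weighted mean bin number.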

Sequence | protein stability index [1] | protein stability index [2] | protein stability index (treatment: DMSO, c terminus: native) | protein stability index (treatment: MLN4924 1 uM, 8 h, c terminus: native)
ERWLQKQGKYSGVGLLDHMVSIYL [RNF180] | 2.3 ± 0.39 | 2.59 ± 0.28 | – | –
AMQASKATKITLSAIYKWITDNFC [FOXJ1] | 2.28 ± 0.27 | 2.14 ± 0.23 | – | –
EHGEKIYFFCENDAEFLCVFCREG [TRIM15] | 2.36 ± 0.082 | 2.53 ± 0.42 | – | –
DIEQFFNIGDSSSGLIQTVFISSY [SPNS1] | 2.68 ± 0.39 | 2.66 ± 0.8 | – | –
PAMRNSPTFKSFEERVETTVTSLK [TPD52L1] | 4.61 ± 0.13 | 4.42 ± 0.2 | – | –
PSSLNSPSSYNCSQSILPLEHGSI [ESR2] | 3.15 ± 0.31 | 3.13 ± 0.12 | – | –
ECGKAFSQNSSLVQHERIHTGDKP [ZNF8] | 4.49 ± 0.33 | 4.48 ± 0.15 | – | –
RCGKHFGTILNYLRDGAVPLPESR [KCTD10] | 2.27 ± 0.3 | 2.38 ± 0.32 | – | –
LHQTIYNQACKLLSDDYEQVRSAA [INTS4] | 2.96 ± 0.48 | 3.09 ± 0.19 | – | –
MLIEELYAFMPARSQDPKKPSRV [CBY2] | – | – | 2.57 ± 0.46 | 2.55 ± 0.17
SWYHWKGFEFSVPFTEMKLRPRNF [TNXB] | 2.47 ± 0.81 | 3.15 ± 0.53 | – | –
RIRSQIGNTESELKKLAEENPDLQ [GDAP1] | 5.42 ± 0.18 | 5.39 ± 0.12 | – | –
LKKKQKRQAELLEKRLQEIEELER [SRPK2] | 4.2 ± 0.29 | 4.24 ± 0.49 | – | –
ILGPAYFVTYVFFVFFVLLNMFLA [PKD2L1] | 2.88 ± 0.45 | 3.22 ± 0.3 | – | –
ENVVHGHILAAEQLSRDSTLGGKA [NSDHL] | 4.52 ± 0.11 | 4.6 ± 0.3 | – | –
RPSLVIHLRIHTGEKPYKCTHCSK [ZNF449] | 2.51 ± 0.49 | 2.31 ± 0.54 | – | –
AAYSSILSSLGENPQRQGLLKTPW [GCH1] | 2.54 ± 0.22 | 2.55 ± 0.29 | – | –
GDAGSRGPMGMRGPPGPQGPPGSP [EMID1] | – | 4.54 ± 1.7 | – | –
TPLTEGSEDLDGHSDPEESFARDL [RETREG3] | 5.51 ± 0.18 | 5.524 ± 0.053 | – | –
TPVDMWSVGCIFAEMFRRKPLFCG [CDK4] | 2.98 ± 0.97 | 2.64 ± 0.61 | – | –
EILDYIFSGQIRLNEDTIQDVVQA [GAN] | 2.67 ± 0.55 | 2.23 ± 0.34 | – | –
MTGLALKHMFERSFTQGEGARPLS [MATN2] | 2.69 ± 0.28 | 2.93 ± 0.42 | – | –
SNVQEVRCPVTVCGDVHGQFHDLM [PPP2CA] | 3.54 ± 0.41 | 3.49 ± 0.31 | – | –

Sequence | protein stability index [1] | protein stability index [2] | protein stability index (treatment: DMSO, c terminus: native) | protein stability index (treatment: MLN4924 1 uM, 8 h, c terminus: native)
KGISQTNLITTVTPEKKAEEERDE [EPB41L3] | 5.54 ± 0.13 | 5.59 ± 0.2 | – | –
VSSQRFKSSVYRRYNDFVVFQEML [SNX8] | 2.1 ± 0.21 | 2.21 ± 0.39 | – | –
LQGVRLSENVVNRMKEPSSPPPAP [CHCHD6] | 4.62 ± 0.32 | 4.939 ± 0.047 | – | –
GVLRPTVRPGTPPDFILKVVIDKH [CTDNEP1] | 2.73 ± 0.35 | 2.67 ± 0.2 | – | –
LSLPYLPSGTPELEVPKPGQPSEP [CHIT1] | 5.09 ± 0.22 | 5.21 ± 0.15 | – | –
ADGARSAVVAAGGGSSGQVTSNGS [CLPTM1] | 5.3 ± 0.065 | 5.09 ± 0.14 | – | –
QYNRSSNSNGGNLNSPPGPHSAKT [CDC14A] | 4.42 ± 0.19 | 4.33 ± 0.29 | – | –
PLTLQVQRPLVSVTVSDASWVSEL [AUP1] | 2.67 ± 0.15 | 2.67 ± 0.25 | – | –
PEKQKRKPGLRRSPIKKVRKSLAL [MYBL2] | 3.97 ± 0.2 | 3.83 ± 0.075 | – | –
NCCLTLCNFSIPEELEFQYRRVNE [ZER1] | 2.55 ± 0.33 | 2.55 ± 0.14 | – | –
EAFLAQFSQLEDKFPGQSSFLWQR [TOR1AIP2] | 2.39 ± 0.56 | 2.5 ± 0.53 | – | –
ESKLLGSNSSRMYFTQTLLPGLAG [MLH1] | 3.12 ± 0.24 | 3.12 ± 0.5 | – | –
GLKPNSLYYFRLAARSPQGLGAST [PTPRD] | 1.89 ± 0.099 | 2.85 ± 1 | – | –
EQRADPNAKAHCGATALHFAAEAG [FEM1B] | 4.03 ± 0.18 | 3.98 ± 0.34 | – | –
EEEEEEEEAEAGEEAVPEEEGPTV [CHGA] | 5.34 ± 0.25 | 5.4 ± 0.25 | – | –
LQARERGEEQVELSTIEELIKDAI [C2CD2L] | 4.14 ± 0.084 | 4.13 ± 0.19 | – | –
QNYISQKEDASEFQILKYLFQIDV [MIA2] | 2.28 ± 0.21 | 2.25 ± 0.45 | – | –
GCWATDAAPAAGLCGAGSEPSIAP [RSPH3] | 4.26 ± 0.25 | 4.41 ± 0.07 | – | –
RGTHAVVGVATARAPLHSVGYTAL [SPSB4] | 2.68 ± 0.27 | 2.63 ± 0.41 | – | –
RLWHTACASDEGEVIVFGGCANNL [KLHDC2] | 2.75 ± 0.34 | 2.89 ± 0.44 | – | –
KHSVLLSASRKSAEQLRIELNAEK [WEE1] | 3.92 ± 0.32 | 4.16 ± 0.21 | – | –
VCIVQKNDTKKMYAMKYMNKQKCV [STK32A] | 2.21 ± 0.11 | 2.5 ± 0.45 | – | –
